Data: publication PMC7486400, “Allosteric coupling between α-rings of the 20S proteasome” (Nature Communications, 2020)
Substitutions are numbered along the chain they refer to. In names and notes the source's numbering stands. Several values for one entry are separate records, joined by “and”; a condition that tells them apart may be missing. Equal entries are not always repeated.

B1: Thermoplasma acidophilium 20S proteasome α-subunit, wild type, full-length (natural protein, UniProt P25156 1-233, looked up)
chain: MQQGQMAYDRAITVFSPDGRLFQVEYAREAVKKGSTALGMKFANGVLLISDKKVRSRLIEQNSIEKIQLIDDYVAAVTSGLVADARVLVDFARISAQQEKVTYGSLVNIENLVKRVADQMQQYTQYGGVRPYGVSLIFAGIDQIGPRLFDCDPAGTINEYKATAIGSGKDAVVSFLEREYKENLPEKEAVTLGIKALKSSLEEGEELKAPEIASITVGNKYRIYDQEEVKKFL
notes: 20S proteasome α-subunit of Thermoplasma acidophilum, full-length; For the asymmetric CP the wild-type ring was co-expressed from α-His and α-MBP (both C-terminal, TEV site before the tag); All tags were removed after final purification, so the subunit is untagged in the EM samples; All these forms are kept as one molecule here; also called αWT; αwt
B2: Thermoplasma acidophilium 20S proteasome α-subunit R28L (natural protein, UniProt P25156 1-233, looked up)
chain: B1 chain with R28L
notes: also called proximal α-ring of PAN-αWTββα_(K66A)
B3: Thermoplasma acidophilium 20S proteasome α-subunit K66A (natural protein, UniProt P25156 1-233, looked up)
chain: B1 chain with K66A
notes: 20S proteasome α-subunit of Thermoplasma acidophilum, full-length, K66A; In the EM samples the K66A ring (distal ring of the asymmetric CP) is untagged; also called α_(K66A); distal α-ring; source: E. coli BL21(DE3), purified (strep-trap column)
B4: Thermoplasma acidophilium 20S proteasome β-subunit, pro-peptide truncated (residues 2–8 removed) (natural protein)
chain: TTTVGITLKDAVIMATERRVTMENFIMHKNGKKLFQIDTYTGMTIAGLVGDAQVLVRYMKAELELYRLQRRVNMPIEAVATLLSNMLNQVKYMPYMVQLLVGGIDTAPHVFSIDAAGGSVEDIYASTGSGSPFVYGVLESQYSEKMTVDEGVDLVIRAISAAKQRDSASGGMIDVAVITRKDGYVQLPTDQIESRIRKLGLIL
notes: 20S proteasome β-subunit of Thermoplasma acidophilum; residues 2–8 truncated to simulate the autoproteolytic removal of the N-terminal pro-peptide; A protease (TEV) site stands before the tag; Tags were removed after final purification of the assembled CP; also called β monomers; source: E. coli BL21(DE3), purified (Ni-NTA)

Assays:
[1] = target: in vitro assembled asymmetric Thermoplasma acidophilium 20S core particle αWTββα_(K66A) (Thermoplasma acidophilium) (UniProt P25156)
[2] = target: in vitro assembled symmetric wild-type Thermoplasma acidophilium 20S core particle αWTββαWT (Thermoplasma acidophilium) (UniProt P25156)
[3] = target: in vitro assembled asymmetric Thermoplasma acidophilium 20S core particle αWTββα_(K66A) (Thermoplasma acidophilium) (UniProt P25156); remark: listed apart in the source
[4] = target: in vitro assembled symmetric wild-type Thermoplasma acidophilium 20S core particle αWTββαWT (Thermoplasma acidophilium) (UniProt P25156); remark: listed apart in the source
[5] = target: the molecule itself; assay: negative stain EM; α-subunits expressed in E. coli and purified alone; Supplementary Fig. 1c–i (panel c is negative stain EM; the method of the other panels was not shown)
[6] = target: B3; assay: in vitro reconstitution with two-step affinity purification; two types of purified α-subunits and β-subunit mixed 1:2:1 in Tris buffer pH 7.5, 1 h at 37 °C; strep-trap column (α K66A), TEV cleavage of all tags except MBP, then MBP column (wild-type α); settings: both partners purified
[7] = target: the molecule itself; assay: cryo-EM structure; single-particle cryo-EM of asymmetric CP with one activator bound, with or without substrate (LFP, GFP-ssrA), C7 symmetry applied, about 3 Å; PAN complexes with nucleotide
[8] = target: B1; assay: as above; settings: both partners purified
[9] = target: B2; assay: as above; settings: both partners purified

Molecule: PA26 (Trypanosoma brucei) with the point mutation V230F (natural protein)
- Kcat (1/min) of LFP peptidase activity, CP with PA26 (singly capped) [1]: 0.426 s⁻¹
- Vmax (μM/min) of LFP peptidase activity, CP with PA26 (singly capped) [1]: 409 µM/min
- Kcat (1/min) of LFP peptidase activity, CP with PA26 (doubly capped) [2]: 0.839 s⁻¹
- Vmax (μM/min) of LFP peptidase activity, CP with PA26 (doubly capped) [2]: 805 µM/min

Molecule: PA26PANc: PA26 (Trypanosoma brucei) with E102A and the last eight C-terminal residues replaced with the last eight C-terminal residues of PAN
- Kcat (1/min) of LFP peptide degradation, 16 nM CP with 112 nM activator (singly capped) [3]: 0.24 s⁻¹
- Vmax (μM/min) of LFP peptide degradation, 16 nM CP with 112 nM activator (singly capped) [3]: 230 µM/min
- Kcat (1/min) of LFP peptide degradation, 16 nM CP with 112 nM activator (doubly capped) [4]: 0.207 s⁻¹
- Vmax (μM/min) of LFP peptide degradation, 16 nM CP with 112 nM activator (doubly capped) [4]: 199 µM/min

Molecule: B1
- stoichiometry N [5]: 7 and 14
- binding result [6]: binds

Molecule: B2
- binding result [7]: binds

Molecule: B3
- binding result [7]: binds

Molecule: B4
- binding result [8]: binds
- binding result [9]: binds
- binding result [6]: binds
